Measurements taken from the supplement of paper PMC9170038.

Test system: MS2 coat protein
Experiment: apparent KD of MS2 coat protein; designed switch direction (-1 OFF switch, 1 ON switch): -1; higher = weaker reporter binding
In short: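 Designed RNA switches were transcribed on Illumina chips by stalled E. coli RNA polymerase and titrated with SNAP-549-labelled MS2 coat protein from 0.7 or 1.5 nM, doubling to 3 µM. Step length ran from 0.8–1.5 h at the lowest concentration to 10–20 min at the highest. The apparent KD is the median over clusters for each design, from curve-fitted normalised cluster fluorescence.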

[1] = Eterna round: R95, input ligand: FMN 200 uM
[2] = Eterna round: R95, input ligand: microRNA oligo, concentration not stated
[3] = Eterna round: R95, input ligand: none
[4] = input ligand: microRNA oligo, concentration not stated

AGUAGAUCUACGCUUGCGUGGAUCUGCAAGGCAGGUGUUACAUGAGGAUCACCCAUGUCCUCAUUUGCUCGUCUUAG [JL turnoff v2 99.07] (puzzle: Sensor v3, turn-off variant 2)
apparent KD of MS2 coat protein [1]: 358 nM | apparent KD of MS2 coat protein [2]: 1100 nM | apparent KD of MS2 coat protein [3]: 332 nM

AGUAGAUCUACGCUUGCGUGGAUCUGCAUUGCAAGUGUAACAUGAGGAUCACCCAUGUCCUCAUUUGCUCGUCUUAU [JL turnoff v2 99.02] (puzzle: Sensor v3, turn-off variant 2)
apparent KD of MS2 coat protein [1]: 54.4 nM | apparent KD of MS2 coat protein [2]: 277 nM | apparent KD of MS2 coat protein [3]: 54.2 nM

AGUAGAUCUACGCUUGCGUGGAUCUGCUAGGCAGGUGUUACAUGAGGAUCACCCAUGUCCUCAUUUGUUCGUCUUAU [JL turnoff v2 99.17] (puzzle: Sensor v3, turn-off variant 2)
apparent KD of MS2 coat protein [1]: 378 nM | apparent KD of MS2 coat protein [2]: 153 nM | apparent KD of MS2 coat protein [3]: 604 nM

AGUAGGAGAGGAUAUACGAAGUCAAAAGACUUCGAUCCUCAACAUGAGGAUCACCCAUGUAGAAGGCUCCUACA [Omei Ex2 BD A1] (Eterna round: R97, puzzle: Exclusion 2)
apparent KD of MS2 coat protein (input ligand: FMN 200 uM): 166 nM | apparent KD of MS2 coat protein (input ligand: none): 154 nM

AGUAGGUCUACCUUGGUGGAUCUGCAUUUAUGCAGGUGAACAUGAGGAUCACCCAUGUCCUCAUUUGCUCGUCUUAU [JL turnoff v2 99.28] (puzzle: Sensor v3, turn-off variant 2)
apparent KD of MS2 coat protein [1]: 55.3 nM | apparent KD of MS2 coat protein [2]: 539 nM | apparent KD of MS2 coat protein [3]: 61.5 nM

AGUAGUAGUAUCCGAUCGUACAUGAGGAUCACCCAUGUAGCUAGACGUGCACGCGAUGCUCGUCAGACUACCAGAUG [salish99_TOv1_r3_036] (puzzle: Sensor v3, turn-off variant 1)
apparent KD of MS2 coat protein [1]: 202 nM | apparent KD of MS2 coat protein [2]: 168 nM | apparent KD of MS2 coat protein [3]: 225 nM

AGUAGUAGUAUCCGGUCCUACAUGAGGAUCACCCAUGUAGCUAGACGUGCACGCGAUGCUCGUCAGACUACCAGAUG [salish99_TOv1_r3_045] (puzzle: Sensor v3, turn-off variant 1)
apparent KD of MS2 coat protein [1]: 48.6 nM | apparent KD of MS2 coat protein [2]: 45.1 nM | apparent KD of MS2 coat protein [3]: 59.5 nM

AGUAGUUGUUUCCGUUCUUACAUGAGGAUCACCCAUGUUUCUUGUCGUGCUCGCGUUGCUCGUCAGACUACCAGAUG [salish99_TOv1_r3_060] (puzzle: Sensor v3, turn-off variant 1)
apparent KD of MS2 coat protein [1]: 51.1 nM | apparent KD of MS2 coat protein [2]: 57.8 nM | apparent KD of MS2 coat protein [3]: 75.8 nM

AGUAUAGUCCAUGGCCGCAAGCUUUUUACUUGUCUUACCACAUGAGGAUCACCCAUGUGACAUGGGCACCUUAUGAU [Sensor v3, turn-off variant 2 (MOD of Oranla v.4)] (puzzle: Sensor v3, turn-off variant 2)
apparent KD of MS2 coat protein [1]: 20.4 nM | apparent KD of MS2 coat protein [2]: 34.3 nM | apparent KD of MS2 coat protein [3]: 19.6 nM

AGUAUUCGAGGAUAUACGUGCCAAUGAUCCAUGAGACUCCUACAUGAGGAUCACCCAUGUAGAAGGCGAAAACC [Eternabot (L1) Solution 99] (Eterna round: R97, puzzle: Exclusion 2)
apparent KD of MS2 coat protein (input ligand: FMN 200 uM): 19.1 nM | apparent KD of MS2 coat protein (input ligand: none): 15.9 nM

AGUCAGGCGGUAGGAUAUCCAAACCGAGUGACCCUUUCAUAACAUGAGGAUCACCCAUGUCGGUGGGAGAAGGGCCGUACGGCG [JL ViennaUCT Atra mod 2] (Eterna round: R96, puzzle: Exclusion NG 2)
apparent KD of MS2 coat protein (input ligand: FMN 200 uM): 305 nM | apparent KD of MS2 coat protein [4]: 145 nM | apparent KD of MS2 coat protein (input ligand: none): 343 nM

AGUCCACAUGAGGAUCACCCAUGUCAGGAUAUACGCAAUACAAAAGAACCCAUCAAAAGUAGAAGGGACAGGGA [Getequ] (puzzle: Exclusion 1)
apparent KD of MS2 coat protein [1]: 13.5 nM | apparent KD of MS2 coat protein [2]: 10 nM | apparent KD of MS2 coat protein [3]: 9.06 nM

AGUCCUAGUCAAGGAUAUACACCGAAGAAAUACGUAGAAGGUGACAUGAGGAUCACCCAUGUAGGGACUCUGGAAACAGAGGAA [Arordi] (Eterna round: R96, puzzle: Exclusion NG 1)
apparent KD of MS2 coat protein (input ligand: FMN 200 uM): 161 nM | apparent KD of MS2 coat protein [4]: 93.4 nM | apparent KD of MS2 coat protein (input ligand: none): 218 nM

AGUCCUGAUGUUAGGAUAUGCAACUAGCCAUUGUAGCAGAAGGAACAUGAGGAUCACCCAUGUACAAAGACCCA [Xeonbera] (puzzle: Brourd's mod of Exclusion 4)
apparent KD of MS2 coat protein [2]: 26.6 nM

AGUUCCUUUGUGAGGAUAUCAAUGAUAUAACUGUAUGAGAAGGCACAUGAGGAUCACCCAUGUUUGUUGCUGCA [Eternabot (L1) Solution 78] (Eterna round: R97, puzzle: Brourd's mod of Exclusion 4)
apparent KD of MS2 coat protein (input ligand: FMN 200 uM): 106 nM | apparent KD of MS2 coat protein (input ligand: none): 20.1 nM

AGUUGGCGAGGAUAUACAUGAGGAUCACCCAUGUGAAAUAUAAGAGUGAGGAAGAAAAGUAGAAGGCGCUGACA [Mat - Exclusion 3 - Mod of Salish D43] (puzzle: Exclusion 3)
apparent KD of MS2 coat protein [2]: 80.4 nM

AGUUGUUGCGUAGGAUAUGAGGAUCACCCAUAGUAGGAUAACGAAAGUGAAGGACUGAGGAUUACCCAGAAGGACGUGAUGACA [pwkr exNG2 2xF5 2xFMN.6] (Eterna round: R96, puzzle: Exclusion NG 2)
apparent KD of MS2 coat protein (input ligand: FMN 200 uM): 602 nM | apparent KD of MS2 coat protein [4]: 234 nM | apparent KD of MS2 coat protein (input ligand: none): 193 nM

AUAAAACAUGAGGAUCACCCAUGUCAGGAUAUACGACUCCAACCUAACAGCUUGGACCGUAGAAGGGACAAGGG [Exclusion 1 (MOD2.2 Esqu)] (Eterna round: R97, puzzle: Exclusion 1)
apparent KD of MS2 coat protein (input ligand: FMN 200 uM): 91.6 nM | apparent KD of MS2 coat protein (input ligand: none): 109 nM

AUAAAACAUGUAGGAUAUGCGUAGCGAAGCUAUGCAGAAGGACAUGAGGAUCACCCAUGUCUUUCCGUCUGCGAACAGACGGAA [Mat - Exclusion NG 1 - Mod of JL - D44] (Eterna round: R96, puzzle: Exclusion NG 1)
apparent KD of MS2 coat protein (input ligand: FMN 200 uM): 35.7 nM | apparent KD of MS2 coat protein [4]: 13.8 nM | apparent KD of MS2 coat protein (input ligand: none): 21 nM

AUAAAAGUAGGAUAUUGACUGAUCGACAUGAGGAUCACCCAUGUGGUGCUGUGCGGUAUUCAAGAAGGGCUAAAAU [Ceisusma] (puzzle: Exclusion 5)
apparent KD of MS2 coat protein [2]: 20.4 nM

AUAAAGCGAGGAUAUACAUGAGGAUCACCCAUGUGGCAGCCAGGUAGGAGUGACGUCGGUAGAAGGCGCACCCU [Quleraer] (puzzle: Exclusion 3)
apparent KD of MS2 coat protein [2]: 24.2 nM

AUAAAGUCAGGAUAUCGAAGUGAGUGGAGAGGAGGGAGGUACGAGAAGGGACAUGAGGAUCACCCAUGUAGGAA [JR_Exclusion4)Sub006] (puzzle: Exclusion 4)
apparent KD of MS2 coat protein [1]: 25.5 nM | apparent KD of MS2 coat protein [2]: 24.2 nM | apparent KD of MS2 coat protein [3]: 21.9 nM

AUAACGUAGCGAGGAUAUACGCGAGAUCGUUGCGUAGAAGGUGUAUCGUUGGACUUGAGGAUCACCCAAGUGAUGAGUCCUUCC [Mutated MS2 EX1.20] (Eterna round: R96, puzzle: Exclusion NG 1)
apparent KD of MS2 coat protein (input ligand: FMN 200 uM): 43.8 nM | apparent KD of MS2 coat protein [4]: 34.7 nM | apparent KD of MS2 coat protein (input ligand: none): 40.7 nM

AUAAUGUGAGGAUAUCACGCCCAAAUAAAUGGGCGAAAUAAUGAGAAGGCACAUGAGGAUCACCCAUGUCCGAA [EX4 A.25] (Eterna round: R97, puzzle: Exclusion 4)
apparent KD of MS2 coat protein (input ligand: FMN 200 uM): 180 nM | apparent KD of MS2 coat protein (input ligand: none): 33.5 nM

AUAAUGUGAGGAUAUCACGGCCCGGUAAAUCCGGUAAACGAUGAGAAGGCACAUGAGGAUCACCCAUGUUCCUG [EX4 A.2] (Eterna round: R97, puzzle: Exclusion 4)
apparent KD of MS2 coat protein (input ligand: FMN 200 uM): 45.7 nM | apparent KD of MS2 coat protein (input ligand: none): 16.2 nM

AUACUCGUUGUGAGGAUAUCGUUUUCUUUACGGAUCGAGAAGGCACAUGAGGAUCACCCAUGUUUGACGUGAAU [JR_BMOE4_Sub093] (puzzle: Brourd's mod of Exclusion 4)
apparent KD of MS2 coat protein [2]: 30.8 nM

AUAGAGUCAGGAUAUACAGGUGGAGGAAAGCAGCAUAAGGAGUAGAAGGGACAUGAGGAUCACCCAUGUAAGUG [JR_Exclu4_Sub058] (puzzle: Exclusion 4)
apparent KD of MS2 coat protein [1]: 47.4 nM | apparent KD of MS2 coat protein [2]: 62.3 nM | apparent KD of MS2 coat protein [3]: 60.2 nM

AUAGGGUCAGGAUAUACGAGCAGGAGGAUGGAGCGGAGGCGGUAGAAGGGACAUGAGGAUCACCCAUGUAAGAA [JR_Exclu4_Sub052] (puzzle: Exclusion 4)
apparent KD of MS2 coat protein [1]: 21.4 nM | apparent KD of MS2 coat protein [2]: 16.3 nM | apparent KD of MS2 coat protein [3]: 19.2 nM

AUAUAGAUGGUCAGGAUAUGCUAGUGAUAACAGUAGCAGAAGGGACAUGAGGAUCACCCAUGUGGAUAGCGCAC [Brourd's EX4 #6] (Eterna round: R97, puzzle: Brourd's mod of Exclusion 4)
apparent KD of MS2 coat protein (input ligand: FMN 200 uM): 123 nM | apparent KD of MS2 coat protein (input ligand: none): 37.1 nM

AUAUAGUCAGGAUAUACAUGAGGAUCACCCAUGUGGUAGUAGAUACAGUAGAGAUAGAGUAGAAGGGACGAUGA [EX3 #24] (Eterna round: R97, puzzle: Exclusion 3)
apparent KD of MS2 coat protein (input ligand: FMN 200 uM): 113 nM | apparent KD of MS2 coat protein (input ligand: none): 31 nM

AUAUAGUCAGGAUAUCGAAGUGAGUGUUGGUUUGUAAGGUACGAGAAGGGACAUGAGGAUCACCCAUGUAGGAA [JR_Exclusion4)Sub003] (puzzle: Exclusion 4)
apparent KD of MS2 coat protein [2]: 42.7 nM

AUAUUACAUGAGGAUCACCCAUGUGAGGAUAUGGAGAGAGACCGCCCGGUCGCGUACACCAGAAGGCGCAGGCG [1st #60] (Eterna round: R97, puzzle: Exclusion 1)
apparent KD of MS2 coat protein (input ligand: FMN 200 uM): 19.8 nM | apparent KD of MS2 coat protein (input ligand: none): 21.2 nM

AUAUUACGAGGAUAUCGUUUUUAUCACAUGAGGAUCACCCAUGUAAUUUAUGUUUCGUUUCGAGAAGGCGUAAGUU [JR_E5_Sub068] (puzzle: Exclusion 5)
apparent KD of MS2 coat protein [2]: 17.8 nM

AUAUUACGAGGAUAUCGUUUUUUUCACAUGAGGAUCACCCAUGUUAUCCAUGUUUCGUUUCGAGAAGGCGUAAGUU [JR_E5_Sub070] (puzzle: Exclusion 5)
apparent KD of MS2 coat protein [2]: 46.9 nM

AUCAUGUCAGGAUAUAUGACAUGGCUCUUCGGAGCAAGAUCAUAGAAGGGACAUGAGGAUCACCCAUGUAGAUC [Ex4-3: 23] (puzzle: Exclusion 4)
apparent KD of MS2 coat protein [1]: 41.9 nM | apparent KD of MS2 coat protein [2]: 195 nM | apparent KD of MS2 coat protein [3]: 188 nM
